# Test results from publication PMC6166728, “Structure–function analyses of the bacterial zinc metalloprotease effector protein GtgA uncover key residues required for deactivating NF-κB” (The Journal of Biological Chemistry, 2018).
# B1: p65(20–188) (domain or fragment, murine)
# chain: AYVEIIEQPKQRGMRFRYKCEGRSAGSIPGERSTDTTKTHPTIKINGYTGPGTVRISLVTKDPPHRPHPHELVGKDCRDGYYEADLCPDRSIHSFQNLGIQCVKKRDLEQAISQRIQTNNNPFHVPIEEQRGDYDLNAVRLCFQVTVRDPAGRPLLLTPVLSHPIFDNRA
# notes: single alanine left by ULP1 cleavage of the His6–SUMO tag, before the first residue of p65; NF-κB subunit p65 (RelA), murine, amplified from RAW264.7 cDNA, N-terminal domain residues 20–188; Cloned in pE-SUMO (LifeSensors); also called p65 NTD; p65 N-terminal domain; source: E. coli BL21 PC2, purified (Ni-NTA, ULP1 cleavage, Superdex 75 SEC); not shown: His6, N-terminal, cleaved; SUMO, …
# Biological target: T1, GtgA(20–228)^E183Q (Salmonella Typhimurium strain ATCC …, UniProt A0A0F6AZI6 20-228, E183Q)
# T1 construct: residues left by TEV cleavage of the His6–GST tag, before the first residue of GtgA; Cloned in pETM30 (TEV-cleavable N-terminal His6 and GST); source: E. coli BL21 PC2, purified (GSH–Sepharose, TEV cleavage, Superdex 75 SEC); not shown: His6, N-terminal, cleaved; GST, N-terminal, cleaved
# T1 sequence: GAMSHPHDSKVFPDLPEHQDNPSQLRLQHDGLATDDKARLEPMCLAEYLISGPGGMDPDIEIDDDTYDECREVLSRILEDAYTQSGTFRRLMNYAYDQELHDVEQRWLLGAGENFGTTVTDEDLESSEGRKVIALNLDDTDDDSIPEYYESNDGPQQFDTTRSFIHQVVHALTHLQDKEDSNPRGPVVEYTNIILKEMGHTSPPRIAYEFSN
# Test: crystal structure; GtgA(20–228)^E183Q–p65(20–188) complex, 175 μM of each protein mixed immediately prior to crystallization; sitting drop, 20 °C, 0.1 M Tris pH 8.3, 0.5 M LiCl, 32.5% (w/v) PEG 6000; Zn2+-free; single heterodimer in the asymmetric unit
# Settings: both partners purified
binder,measurement,value
B1,binding result,binds
